This note sets out measurements from paper PMC3392929.

For this experiment, the target named is Purified β-actin (Cytoskeleton) (UniProt P60709). Kind of experiment: SPR. (In general: Surface plasmon resonance follows binding to a sensor surface in real time, without labels.)

Some results are limits rather than exact numbers.

Usually Kd stands for the equilibrium constant for the complex coming apart. A low value points to higher affinity. In the case of “GST-tagged Myo1c neck plus tail (domain or fragment)”, the equilibrium dissociation constant (Kd) was < 2000 nM.
